Experimental data as given in PMC8140153, “Fluorescence Fluctuation Spectroscopy enables quantification of potassium channel subunit dynamics and stoichiometry” (Scientific Reports, 2021).

What was measured:
[1] = molecular target: the molecule itself; assay: Number and Brightness (N&B) analysis of TIRF image sequences; living CHO cells transfected with one mEGFP-tagged subunit alone; plasma membrane, 37 °C, 5% CO2; GAP-mEGFP as monomeric reference; oligomerization state corrected for protein maturation and misfolding
[2] = molecular target: T1, KCNQ1-mCherry (human KCNQ1, C-terminally mCherry-tagged) (human, UniProt P51787 1-676); assay: Number and Brightness (N&B) analysis of TIRF image sequences; living CHO cells co-transfected with KCNE2-mEGFP and KCNQ1-mCherry; cells with fast micro-diffusion, E2f(Q1) (Dmicro > 0.02 µm^2 s^-1); 37 °C, 5% CO2; GAP-mEGFP as monomeric reference; settings: partners not purified
T1 construct: KCNQ1 (Kv7.1) alpha subunit, human; cDNA in a CMV-based expression construct; also called Q1 in E2(Q1); source: CHO cells, co-transfected (Lipofectamine 3000), in living cells; not shown: mCherry, C-terminal, kept
T1 sequence (looked up): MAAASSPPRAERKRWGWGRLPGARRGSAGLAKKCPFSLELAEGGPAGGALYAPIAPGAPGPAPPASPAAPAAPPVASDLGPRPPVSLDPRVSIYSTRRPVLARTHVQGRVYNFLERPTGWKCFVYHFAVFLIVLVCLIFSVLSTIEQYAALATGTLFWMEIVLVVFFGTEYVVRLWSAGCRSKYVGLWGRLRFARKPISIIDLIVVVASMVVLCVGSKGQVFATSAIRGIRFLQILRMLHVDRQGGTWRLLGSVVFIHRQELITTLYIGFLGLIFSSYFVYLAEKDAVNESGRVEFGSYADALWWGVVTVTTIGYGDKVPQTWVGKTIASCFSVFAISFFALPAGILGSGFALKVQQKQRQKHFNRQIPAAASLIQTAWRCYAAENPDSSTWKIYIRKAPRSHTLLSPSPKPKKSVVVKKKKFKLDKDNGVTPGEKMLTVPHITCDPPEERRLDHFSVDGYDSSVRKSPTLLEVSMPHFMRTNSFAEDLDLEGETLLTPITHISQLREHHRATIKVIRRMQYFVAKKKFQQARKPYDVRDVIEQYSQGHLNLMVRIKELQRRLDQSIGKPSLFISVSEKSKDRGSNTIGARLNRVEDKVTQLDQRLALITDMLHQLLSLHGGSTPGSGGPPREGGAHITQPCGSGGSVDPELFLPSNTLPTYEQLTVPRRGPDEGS

- stoichiometry N [2]: 4 E2 subunits per KCNQ1-KCNE2 complex
B1: KCNE2-mEGFP (human KCNE2, C-terminally mEGFP-tagged) (natural protein, UniProt Q9Y6J6 1-123, looked up)
chain: MSTLSNFTQTLEDVFRRIFITYMDNWRQNTTAEQEALQAKVDAENFYYVILYLMVMIGMFSFIIVAILVSTVKSKRREHSNDPYHQYIVEDWQEKYKSQILNLEESKATIHENIGAAGFKMSP
notes: KCNE2, human, single transmembrane segment beta subunit; cDNA in a CMV-based expression construct; also called KCNE2 subunit; E2(Q1), E2f(Q1), E2s(Q1) when co-expressed with KCNQ1-mCherry; source: CHO cells, transfected (Lipofectamine 3000), in living cells; not shown: mEGFP, C-terminal, kept
- stoichiometry N [1]: 2
